Reference: patent publication US11071755 (CRISPR THERAPEUTICS, dated 2021)

T1: recombinant biotinylated human BCMA (human, UniProt Q02223 1-54, biotinylated)
T1 construct: Soluble labelled reagent, detected with streptavidin-APC; also called recombinant BCMA; biotinylated BCMA
T1 sequence (looked up): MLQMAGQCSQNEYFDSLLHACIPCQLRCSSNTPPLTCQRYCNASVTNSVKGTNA


Legend:
[1] = biological target: T1, recombinant biotinylated human BCMA; test: flow cytometry, recombinant BCMA on CAR-T cells
Protocol: Allogeneic anti-BCMA CAR T cells were generated as described above. Anti-BCMA CAR expression was measured by determining the percent of cells that bound biotinylated BCMA subsequently detected by FACS using streptavidin-APC (FIG. 47).
Figure 48: FIG. 48 is a graph showing anti-BCMA CAR expression. Allogeneic CAR T cells were generated as previously described. Anti-BCMA CAR expression was measured by determining the percent of cells that bound biotinylated recombinant human BCMA subsequently detected by FACS using streptavidin-APC. […] CAR constructs were evaluated for their ability to kill RPMI-8226 cells. […] Following enrichment/purification, greater than 99.5% of the gene edited cells are TCR negative.

[2] = biological target: T1, recombinant biotinylated human BCMA; test: flow cytometry, biotinylated BCMA on CAR-T cells detected with streptavidin-APC
Protocol: Allogeneic TRAC−/B2M−/anti-BCMA CAR T+ cells were generated, as described above, having either a CD28 co-stimulatory domain (encoded by CTX-160 or CTX-166) or a 4-1BB co-stimulatory domain (encoded by CTX160b or CTX166b). Anti-BCMA CAR expression was measured by determining the percent of cells that bound biotinylated BCMA subsequently detected by FACS using streptavidin-APC (FIG. 67). Greater than 60% of the cells expressed the CAR at the cell surface.

Row | Binder | binding result [1] | percent of cells that bound biotinylated BCMA [2] [%]
1 | anti-BCMA CAR of CTX-166 (CD28 co-stimulatory domain) (other, CAR on edited primary human T cells; also called anti-BCMA (CD28) CAR) QVQLVQSGAELKKPGASVKVSCKASGNTLTNYVIHWVRQAPGQRLEWMGYILPYNDLTKYSQKFQGRVTITRDKSASTAYMELSSLRSEDTAVYYCTRWDWDGFFDPWGQGTTVTVSSGGGGSGGGGSGGGGSEIVMTQSPATLSVSPGERASISCRASQSLVHSNGNTHLHWYQQRPGQAPRLLIYSVSNRFSEVPARFSGSGSGTDFTLTISSVESEDFAVYYCSQTSHIPYTFGGGTKLEIKSAAAFVPVFLPAKPTTTPAPRPPTPAPTIASQPLSLRPEACRPAAGGAVHTRGLDFACDIYIWAPLAGTCGVLLLSLVITLYCNHRNRSKRSRLLHSDYMNMTPRRPGPTRKHYQPYAPPRDFAAYRSRVKFSRSADAPAYQQGQNQLYNELNLGRREEYDVLDKRRGRDPEMGGKPRRKNPQEGLYNELQKDKMAEAYSEIGMKGERRRGKGHDGLYQGLSTATKDTYDALHMQALPPR |  | > 60
2 | anti-BCMA CAR of CTX-160 (CD28 co-stimulatory domain) (other, CAR on edited primary human T cells; also called anti-BCMA (CD28) CAR) EVQLVESGGGLVQPGGSLKLSCAASGIDFSRYWMSWVRQAPGKGLEWIGEINPDSSTINYADSVKGRFTISRDNAKNTLYLQMNLSRAEDTALYYCASLYYDYGDAMDYWGQGTLVTVSSGGGGSGGGGSGGGGSDIQMTQSPSSLSASVGDRVTITCRASQSVDSNVAWYQQKPEKAPKSLIFSASLRFSGVPSRFSGSGSGTDFTLTISSLQPEDFATYYCQQYNSYPLTFGAGTKLEIKSAAAFVPVFLPAKPTTTPAPRPPTPAPTIASQPLSLRPEACRPAAGGAVHTRGLDFACDIYIWAPLAGTCGVLLLSLVITLYCNHRNRSKRSRLLHSDYMNMTPRRPGPTRKHYQPYAPPRDFAAYRSRVKFSRSADAPAYQQGQNQLYNELNLGRREEYDVLDKRRGRDPEMGGKPRRKNPQEGLYNELQKDKMAEAYSEIGMKGERRRGKGHDGLYQGLSTATKDTYDALHMQALPPR |  | > 60
3 | anti-BCMA CAR of CTX-160b (4-1BB co-stimulatory domain) (other, CAR on edited primary human T cells; also called anti-BCMA (4-1BB) CAR) EVQLVESGGGLVQPGGSLKLSCAASGIDFSRYWMSWVRQAPGKGLEWIGEINPDSSTINYADSVKGRFTISRDNAKNTLYLQMNLSRAEDTALYYCASLYYDYGDAMDYWGQGTLVTVSSGGGGSGGGGSGGGGSDIQMTQSPSSLSASVGDRVTITCRASQSVDSNVAWYQQKPEKAPKSLIFSASLRFSGVPSRFSGSGSGTDFTLTISSLQPEDFATYYCQQYNSYPLTFGAGTKLEIKSAAAFVPVFLPAKPTTTPAPRPPTPAPTIASQPLSLRPEACRPAAGGAVHTRGLDFACDIYIWAPLAGTCGVLLLSLVITLYCNHRNRKRGRKKLLYIFKQPFMRPVQTTQEEDGCSCRFPEEEEGGCELRVKFSRSADAPAYQQGQNQLYNELNLGRREEYDVLDKRRGRDPEMGGKPRRKNPQEGLYNELQKDKMAEAYSEIGMKGERRRGKGHDGLYQGLSTATKDTYDALHMQALPPR |  | > 60

Results, then the binder that gave them:

Row | binding result [1] | percent of cells that bound biotinylated BCMA [2] [%] | Binder
4 | binds |  | anti-BCMA CAR of CTX-152 (BCMA-1: CD8[signal peptide]-VH-linker-VL-CD8[tm]-CD28[co-stimulatory domain]-CD3z) (other, CAR on edited primary human T cells, co-expressed with GFP from a bicistronic 2A mRNA; also called BCMA-1 CAR) QVQLQQSGGGLVQPGGSLKLSCAASGIDFSRYWMSWVRRAPGKGLEWIGEINPDSSTINYAPSLKDKFIISRDNAKNTLYLQMSKVRSEDTALYYCASLYYDYGDAMDYWGQGTSVTVSSGGGGSGGGGSGGGGSGDIVMTQSQRFMTTSVGDRVSVTCKASQSVDSNVAWYQQKPRQSPKALIFSASLRFSGVPARFTGSGSGTDFTLTISNLQSEDLAEYFCQQYNNYPLTFGAGTKLELKSAAAFVPVFLPAKPTTTPAPRPPTPAPTIASQPLSLRPEACRPAAGGAVHTRGLDFACDIYIWAPLAGTCGVLLLSLVITLYCNHRNRSKRSRLLHSDYMNMTPRRPGPTRKHYQPYAPPRDFAAYRSRVKFSRSADAPAYQQGQNQLYNELNLGRREEYDVLDKRRGRDPEMGGKPRRKNPQEGLYNELQKDKMAEAYSEIGMKGERRRGKGHDGLYQGLSTATKDTYDALHMQALPPR
5 |  | > 60 | anti-BCMA CAR of CTX-166b (4-1BB co-stimulatory domain) (other, CAR on edited primary human T cells; also called anti-BCMA (4-1BB) CAR) QVQLVQSGAELKKPGASVKVSCKASGNTLTNYVIHWVRQAPGQRLEWMGYILPYNDLTKYSQKFQGRVTITRDKSASTAYMELSSLRSEDTAVYYCTRWDWDGFFDPWGQGTTVTVSSGGGGSGGGGSGGGGSEIVMTQSPATLSVSPGERASISCRASQSLVHSNGNTHLHWYQQRPGQAPRLLIYSVSNRFSEVPARFSGSGSGTDFTLTISSVESEDFAVYYCSQTSHIPYTFGGGTKLEIKSAAAFVPVFLPAKPTTTPAPRPPTPAPTIASQPLSLRPEACRPAAGGAVHTRGLDFACDIYIWAPLAGTCGVLLLSLVITLYCNHRNRKRGRKKLLYIFKQPFMRPVQTTQEEDGCSCRFPEEEEGGCELRVKFSRSADAPAYQQGQNQLYNELNLGRREEYDVLDKRRGRDPEMGGKPRRKNPQEGLYNELQKDKMAEAYSEIGMKGERRRGKGHDGLYQGLSTATKDTYDALHMQALPPR
6 | binds |  | anti-BCMA CAR of CTX-154 (BCMA-2: CD8[signal peptide]-VL-linker-VH-CD8[tm]-CD28[co-stimulatory domain]-CD3z) (other, CAR on edited primary human T cells, co-expressed with GFP from a bicistronic 2A mRNA; also called BCMA-2 CAR) DIVMTQSQRFMTTSVGDRVSVTCKASQSVDSNVAWYQQKPRQSPKALIFSASLRFSGVPARFTGSGSGTDFTLTISNLQSEDLAEYFCQQYNNYPLTFGAGTKLELKGGGGSGGGGSGGGGSGQVQLQQSGGGLVQPGGSLKLSCAASGIDFSRYWMSWVRRAPGKGLEWIGEINPDSSTINYAPSLKDKFIISRDNAKNTLYLQMSKVRSEDTALYYCASLYYDYGDAMDYWGQGTSVTVSSSAAAFVPVFLPAKPTTTPAPRPPTPAPTIASQPLSLRPEACRPAAGGAVHTRGLDFACDIYIWAPLAGTCGVLLLSLVITLYCNHRNRSKRSRLLHSDYMNMTPRRPGPTRKHYQPYAPPRDFAAYRSRVKFSRSADAPAYQQGQNQLYNELNLGRREEYDVLDKRRGRDPEMGGKPRRKNPQEGLYNELQKDKMAEAYSEIGMKGERRRGKGHDGLYQGLSTATKDTYDALHMQALPPR
